The values that follow come from patent US20040192898A1.

Assay [1] addresses β-amyloid peptide (1-42) conjugated to BSA (bovine) (UniProt P05067). Put plainly: competition ELISA, BSA-β-amyloid peptide coated, against biotinylated Mu266 (0.6 µg/ml); Exp. I, N56T series. On the technique in general: In an ELISA, binding on a coated surface is turned into a signal by an enzyme label.
The target is the same in assay [2]. Nature of the assay: competition ELISA, BSA-β-amyloid peptide coated, against biotinylated Mu266 (0.6 µg/ml); Exp. III, N56T series.
Assay [3] shares this target. Nature of the assay: competition ELISA, BSA-β-amyloid peptide coated, against biotinylated Mu266 (0.6 µg/ml); Exp. II, N56T series.
Assay [4] shares this target. Put plainly: competition ELISA, BSA-β-amyloid peptide coated, against biotinylated Mu266 (0.6 µg/ml); average of three, N56S series.
Assay [5] has the same target. Put plainly: competition ELISA, BSA-β-amyloid peptide coated, against biotinylated Mu266 (0.6 µg/ml); Exp. III, N56S series.
The target in a further assay is Amyloid-beta 1-42 (UniProt P05067). Nature of the assay: SPR, BIAcore 2000; antibody captured, Aβ flowed over. A general note: In SPR one partner is held on a chip, and binding of the other changes the refractive index at the surface.
A further assay addresses Amyloid-beta 1-40 (UniProt P05067). The assay is described as above.
The target of assay [6] is β-amyloid peptide (1-42) conjugated to BSA (bovine) (UniProt P05067). Nature of the assay: competition ELISA, Aβ1-42-BSA coated, against biotinylated Mu266 (0.3 µg/ml); mean of three experiments, first set.
Assay [7] shares this target. Nature of the assay: competition ELISA, Aβ1-42-BSA coated, against biotinylated Mu266 (0.3 µg/ml); mean of three experiments, second set.
The target is the same in assay [8]. Nature of the assay: competition ELISA, BSA-β-amyloid peptide coated, against biotinylated Mu266 (0.6 µg/ml); Exp. I, N56S series.
Assay [9] has the same target. Nature of the assay: competition ELISA as in Example 7, against biotinylated Mu266; mean, N=3.
For assay [10] the target is unchanged. Nature of the assay: competition ELISA, BSA-β-amyloid peptide coated, against biotinylated Mu266 (0.6 µg/ml); average of three, N56T series.
Assay [11] shares this target. Nature of the assay: competition ELISA as in Example 7, against biotinylated Mu266; N=1.
Assay [12] has the same target. Put plainly: competition ELISA, BSA-β-amyloid peptide coated, against biotinylated Mu266 (0.6 µg/ml); Exp. II, N56S series.

Where “and” joins values, the source holds several entries; their conditions need not be identical. Equal entries are not always repeated.

What is called IC50 is the concentration at which inhibition is half-maximal. One may read the Kd as the equilibrium constant for the complex coming apart. Read a high Kd as lower affinity. Turning to Mouse monoclonal antibody 266, the IC50 stood at 4.3 µg/mL in assay [1]; 6.4 µg/mL in assay [2]; 6.4 µg/mL in assay [3]; 4.8 µg/mL in [4]; 6.1 µg/mL in assay [5]; 4.7 µg/mL in assay [6]. Also, the IC50 in [7] was 3.87 µg/mL; in assay [8], 3.8 µg/mL; in assay [9] it was 7.6 µg/mL and 14 µg/mL; in assay [10], 5.7 µg/mL; in assay [11], 3.8 µg/mL and 7.1 µg/mL; in assay [12], 4.5 µg/mL. Also, the Kd with Amyloid-beta 1-42 and in the assay with Amyloid-beta 1-40 was 4 pM throughout.
